The target of assay [1] is T1, recombinant human IL-12 (rhIL-12) (human, UniProt P29459 23-219; P29460 23-328).
T1 construct: disulfide-linked p35/p40 heterodimer (p70); also called IL-12 p70; rec. human IL12
T1 sequence (looked up) 1: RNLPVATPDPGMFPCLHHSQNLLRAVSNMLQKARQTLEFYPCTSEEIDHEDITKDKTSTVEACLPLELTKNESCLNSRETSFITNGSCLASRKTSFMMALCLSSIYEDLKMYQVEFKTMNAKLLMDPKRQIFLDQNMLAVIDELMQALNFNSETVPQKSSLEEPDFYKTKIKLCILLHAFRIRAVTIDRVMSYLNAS
T1 sequence (looked up) 2: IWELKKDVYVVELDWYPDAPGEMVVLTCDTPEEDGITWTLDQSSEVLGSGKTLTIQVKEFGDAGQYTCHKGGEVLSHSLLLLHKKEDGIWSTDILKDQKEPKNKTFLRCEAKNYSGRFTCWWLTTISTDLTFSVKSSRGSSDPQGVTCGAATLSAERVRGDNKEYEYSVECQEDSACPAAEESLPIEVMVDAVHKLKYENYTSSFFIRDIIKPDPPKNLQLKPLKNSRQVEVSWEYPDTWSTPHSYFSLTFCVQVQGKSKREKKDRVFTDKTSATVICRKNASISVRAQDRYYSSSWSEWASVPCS
Briefly: BIAcore SPR. On the technique in general: Surface plasmon resonance follows binding to a sensor surface in real time, without labels.

In assay [2] the target is T1, recombinant human IL-12 (rhIL-12). Briefly: cell-based or functional assay.
For assay [3] the target is unchanged. Briefly: cell-based or functional assay. The source holds these as a separate data set.
Assay [4] shares this target. As to the kind of experiment: cell-based or functional assay. The source holds these as a separate data set.
The target is the same in assay [5]. Briefly: receptor binding assay, 125I-hIL-12 on PHA blasts. The protocol: PHA blast cells isolated as described above, were washed once and resuspended in binding buffer to a cell density of 2×10⁷ cells/ml. […] The cell pellet was examined for cell bound radioactivity using a gamma counter. […] Incubations were carried out in duplicate.
In assay [6] the target is T2, human interleukin 12 (p70 heterodimer of p35 and p40) (human, UniProt P29459 23-219; P29460 23-328).
T2 construct: Recombinant human IL-12; p35 and p40 linked by a disulfide bridge; also called hIL-12; IL-12
T2 sequence (looked up) 1: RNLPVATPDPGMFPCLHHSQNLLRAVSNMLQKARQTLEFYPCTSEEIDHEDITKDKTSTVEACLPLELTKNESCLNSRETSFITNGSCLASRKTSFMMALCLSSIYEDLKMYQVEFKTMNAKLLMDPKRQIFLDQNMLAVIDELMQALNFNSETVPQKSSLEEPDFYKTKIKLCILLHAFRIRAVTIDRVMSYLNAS
T2 sequence (looked up) 2: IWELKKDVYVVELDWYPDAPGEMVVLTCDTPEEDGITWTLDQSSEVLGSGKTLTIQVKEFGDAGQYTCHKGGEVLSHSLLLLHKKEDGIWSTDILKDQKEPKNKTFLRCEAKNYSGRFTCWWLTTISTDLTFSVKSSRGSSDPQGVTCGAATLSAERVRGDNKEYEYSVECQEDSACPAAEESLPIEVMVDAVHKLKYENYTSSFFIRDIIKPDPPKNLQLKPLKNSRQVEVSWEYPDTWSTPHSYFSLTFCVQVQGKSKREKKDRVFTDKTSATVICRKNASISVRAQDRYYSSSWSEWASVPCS
As to the kind of experiment: BIAcore.

Assay [7] has as its target T2, human interleukin 12 (p70 heterodimer …). Briefly: BIAcore. The source holds these as a separate data set.
Assay [8] shares this target. As to the kind of experiment: BIAcore. This is another data set of the same source.
For assay [9] the target is unchanged. Briefly: BIAcore. This is another data set of the same source.
Assay [10] has the same target. As to the kind of experiment: BIAcore. This is another data set of the same source.
Assay [11] has the same target. Briefly: BIAcore. This is another data set of the same source.
For assay [12] the target is unchanged. As to the kind of experiment: BIAcore. The source holds these as a separate data set.

Where “and” joins values, the source holds several entries; their conditions need not be identical. Identical values can stand only once. Like-named read-outs stand apart in the source and are kept apart here.

By koff is commonly meant the rate constant with which the complex falls apart. Usually IC50 stands for the point on the concentration scale where inhibition reaches its midpoint.

B1: Y61 IgG (antibody, V domains shown)
VH: QVQLVQSGGGVVQPGRSLRLSCAASGFTFSSYGMHWVRQAPGKGLEWVAFIRYDGSNKYYADSVKGRFTISRDNSKNTLYLQMKSLRAEDTAVYYCKTHGSHDNWGQGTMVTVSS
VL: SYVLTQPPSVSGTPGQRVTISCSGGRSWIGSNTVKWYQQLPGTAPKLLIYGNDQRPSGVPDRFSGSKSGTSASLAITGVQAEDEADYYCQSYDRGTHPALLFGTGTKVTVLG
notes: whole IgG1; also called Y61-IgG1
Take B1: the koff in assay [1] was 0.00015 s⁻¹. In addition, the “PHA assay IC50” value in [2] is 0.13 nM. Also, in assay [3], the “PHA assay IC50 (M) p70:p40 1:0” value came to 1.8e-10 M and the “PHA assay IC50 (M) p70:p40 1:50” value is 1.8e-10 M. Further, in assay [4], the “IC50 (M), bioassay, Human IL-12 Purified” value is 1.7e-10 M. For the same molecule, the IC50 in assay [5] is 0.016 nM.

B2: Y61 scFv (scFv, V domains shown)
VH: QVQLVQSGGGVVQPGRSLRLSCAASGFTFSSYGMHWVRQAPGKGLEWVAFIRYDGSNKYYADSVKGRFTISRDNSKNTLYLQMKSLRAEDTAVYYCKTHGSHDNWGQGTMVTVSS
VL: SYVLTQPPSVSGTPGQRVTISCSGGRSWIGSNTVKWYQQLPGTAPKLLIYGNDQRPSGVPDRFSGSKSGTSASLAITGVQAEDEADYYCQSYDRGTHPALLFGTGTKVTVLG
notes: Single chain Fv; also called clone Y61
Take B2: the koff in assay [6] is 0.000249 s⁻¹ and 0.000168 s⁻¹ and 0.000337 s⁻¹ and 0.000178 s⁻¹; in [7] it was 0.000204 s⁻¹ and 0.000206 s⁻¹ and 0.000151 s⁻¹ and 0.000178 s⁻¹; in assay [8], 0.000385 s⁻¹ and 0.00031 s⁻¹; in assay [9] it was 0.000403 s⁻¹; in assay [10], 0.000211 s⁻¹ and 0.000229 s⁻¹ and 0.000241 s⁻¹; in assay [11], 0.000215 s⁻¹ and 0.000297 s⁻¹. Further, in [12], the off-rate constant (koff) is 0.000259 s⁻¹ and 0.000199 s⁻¹ and 0.000256 s⁻¹.

B3: AO3 IgG1 (antibody, V domains shown)
VH: QVQLVQSGGGVVQPGRSLRLSCAASGFTFSSYGMHWVRQAPGKGLEWVAFIRYDGSNKYYADSVKGRFTISRDNSKNTLYLQMKSLRAEDTAVYYCKTHGSHDNWGQGTMVTVSS
VL: SYVLTQPPSVSGTPGQRVTISCSGGRSNIGSNTVKWYQQLPGTAPKLLIYGNDQRPSGVPDRFSGSKSGTSASLAITGVQAEDEADYYCQSYDRGTHPLTMFGTGTKVTVLG
notes: IgG1
In the case of B3, in assay [1], the off-rate (koff) amounted to 0.000304 s⁻¹. The “PHA assay IC50” value in assay [2] turned out to be 0.38 nM. In assay [3], the “PHA assay IC50 (M) p70:p40 1:0” value was 2.5e-10 M and the “PHA assay IC50 (M) p70:p40 1:50” value is 2.2e-10 M. Further, the IC50 in assay [5] was 0.029 nM.

B4: Y61 IgG germline (antibody, V domains shown)
VH: QVQLVESGGGVVQPGRSLRLSCAASGFTFSSYGMHWVRQAPGKGLEWVAFIRYDGSNKYYADSVKGRFTISRDNSKNTLYLQMNSLRAEDTAVYYCKTHGSHDNWGQGTMVTVSS
VL: QSVLTQPPSVSGAPGQRVTISCSGSRSNIGSNTVKWYQQLPGTAPKLLIYGNDQRPSGVPDRFSGSKSGTSASLAITGLQAEDEADYYCQSYDRGTHPALLFGTGTKVTVL
Turning to B4, in assay [1], the koff is 0.00015 s⁻¹. In [2], the “IFN gamma IC50” value turned out to be 0.16 nM and the “PHA assay IC50” value came out at 0.13 nM. Besides, the IC50 in assay [5] was 0.016 nM.

B5: AO3 IgG germline (antibody, V domains shown)
VH: QVQLVESGGGVVQPGRSLRLSCAASGFTFSSYGMHWVRQAPGKGLEWVAFIRYDGSNKYYADSVKGRFTISRDNSKNTLYLQMNSLRAEDTAVYYCKTHGSHDNWGQGTMVTVSS
VL: QSVLTQPPSVSGAPGQRVTISCSGSRSNIGSNTVKWYQQLPGTAPKLLIYGNDQRPSGVPDRFSGSKSGTSASLAITGLQAEDEADYYCQSYDRGTHPLTMFGTGTKVTVL
notes: IgG with germline frameworks as named; only the CDR3s are tied to it
Take B5: in assay [1], the off-rate (koff) was determined as 0.00025 s⁻¹. The “PHA assay IC50” value in [2] came out at 0.175 nM. Moreover, the IC50 in assay [5] worked out at 0.035 nM.

B6: Y61-L94Y (scFv, V domains shown)
VH: QVQLVQSGGGVVQPGRSLRLSCAASGFTFSSYGMHWVRQAPGKGLEWVAFIRYDGSNKYYADSVKGRFTISRDNSKNTLYLQMKSLRAEDTAVYYCKTHGSHDNWGQGTMVTVSS
VL: QSVLTQPPSVSGAPGQRVTISCSGSRSNIGSNTVKWYQQLPGTAPKLLIYGNDQRPSGVPDRFSGSKSGTSASLAITGLQAEDEADYYCQSYDRYTHPALLFGTGTKVTVL
B6: in assay [12], the dissociation rate constant (koff) came to 0.000131 s⁻¹. The “PHA assay IC50” value in assay [2] came out at 0.02 nM. Further, the 50% inhibitory concentration (IC50) in assay [5] is 0.02 nM.

The values are drawn from US20150037348A1 (AbbVie / Abbott, published 2015).
